Source: IntAct's records for PubMed 24012959

B1: "Na(+)/H(+) exchange regulatory cofactor NHE-RF1" (Homo sapiens), O14745 (parent)
chain: MSADAAAGAPLPRLCCLEKGPNGYGFHLHGEKGKLGQYIRLVEPGSPAEKAGLLAGDRLVEVNGENVEKETHQQVVSRIRAALNAVRLLVVDPETDEQLQKLGVQVREELLRAQEAPGQAEPPAAAEVQGAGNENEPREADKSHPEQRELRPRLCTMKKGPSGYGFNLHSDKSKPGQFIRSVDPDSPAEASGLRAQDRIVEVNGVCMEGKQHGDVVSAIRAGGDETKLLVVDRETDEFFKKCRVIPSQEHLNGPLPVPFTNGEIQKENSREALAEAALESPRPALVRSASSDTSEELNSQDSPPKQDSTAPSSTSSSDPILDFNISLAMAKERAHQKRSSKRAPQMDWSKKNELFSNL

Variants of: B1
Conditions: with pgfrb_human PDGFRB

| Variant | effect of a mutation on the interaction |
| --- | --- |
| MSADAAAGAPLPRLCCLEKGPNGYGFHLHGEKGKLGQYIRLVEPGSPAEKAGLLAGDRLVEVNGENVEKETHQQVVSRIRAALNAVRLLVVDPETDEQLQKLGVQVREELLRAQEAPGQAEPPAAAEVQGAGNENEPREADKSHPEQRELRPRLCTMKKGPSGYGFNLHSDKSKPGQFIRSVDPDSPAEASGLRAQDRIVEVNGVCMEGKQHGDVVSAIRAGGDETKLLVVDRETDEFFKKCRVIPSQEHLNGPLPVPFTNGEIQKENSREALAEAALESPRPALVRSASSDTSEELNSQVSPPKQDSTAPSSTSSSDPILDFNISLAMAKERAHQKRSSKRAPQMDWSKKNELFSNL [D301V] | increasing interaction |
